Substitutions are numbered along the chain they refer to. Numbers in names are those of the source. No end group written: not given here. Me3 = trimethyl; Me2 = dimethyl
Legend:
Avitag-PHD1 [1] = target: T1, Avitag-PHD1 (human, UniProt P41229-1 318-378, not fully specified; biotin on the Avitag (BirA co-expression)); experiment: BLI; dissociation kobs2 (two phase)
T1 chain: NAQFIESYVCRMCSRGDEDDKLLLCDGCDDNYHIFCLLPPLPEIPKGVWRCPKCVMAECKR

[2] = target: T2, PHD1 (KDM5C residues 318–378) (human, UniProt P41229-1 318-378); experiment: NMR; from D343
T2 chain: T1 chain

Avitag-PHD1 [3] = target: T1, Avitag-PHD1; experiment: BLI; dissociation kobs1 (two phase)
[4] = target: T3, unmodified 187 bp mononucleosome (human, UniProt P68431 1-136); experiment: apparent, EMSA
[5] = target: T4, unmodified 147 bp mononucleosome (human, UniProt P68431 1-136); experiment: apparent, EMSA
PHD1 D343A mutant = target: T5, PHD1 D343A mutant (human, UniProt P41229-1 318-378, D343A); experiment: NMR; lower limit, from I361
T5 sequence: T1 chain with D26A

[6] = target: T2, PHD1 (KDM5C residues 318–378); experiment: NMR; from I361
[7] = target: T3, unmodified 187 bp mononucleosome; experiment: apparent, EMSA, lower limit
[8] = target: T4, unmodified 147 bp mononucleosome; experiment: apparent, EMSA, lower limit
[9] = target: T4, unmodified 147 bp mononucleosome; experiment: apparent Kd, EMSA, lower limit
[10] = target: T4, unmodified 147 bp mononucleosome; experiment: apparent Kd, EMSA, lower limit; remark: listed apart in the source
[11] = target: T2, PHD1 (KDM5C residues 318–378); experiment: NMR; lower limit, from I361

B1: KDM5C (199–218) peptide (peptide)
peptide: Ac-QSVQPSKFNSYGRRAKRLQP-NH2
Avitag-PHD1 [1]
  koff: 0.02 s⁻¹
[2]
  Kd: 440 µM
Avitag-PHD1 [3]
  koff: 1.45 s⁻¹

B2: ARID (KDM5C residues 73–188) (domain or fragment)
chain: NELEAQTRVKLNYLDQIAKFWEIQGSSLKIPNVERRILDLYSLSKIVVEEGGYEAICKDRRWARVAQRLNYPPGKNIGSLLRSHYERIVYPYEMYQSGANLVQCNTRPFDNEEKDK
[4]
  Kd: 22 µM
[5]
  Kd: 31 µM

B3: H3 (1–18) tail peptide (peptide)
peptide: ARTKQTARKSTGGKAPRK
[2]
  Kd: 140 µM
PHD1 D343A mutant
  Kd: > 1450 µM

B4: KDM5C (295–314) peptide (peptide)
peptide: Ac-KEELSHSPEPCTKMTMRLRR-NH2
Avitag-PHD1 [1]
  koff: 0.04 s⁻¹
Avitag-PHD1 [3]
  koff: 2.2 s⁻¹

B5: H3K4me1 (1–18) peptide (peptide)
peptide: ARTK(Me)QTARKSTGGKAPRK
[6]
  Kd: 313 µM

B6: KDM5C^(1–839 ΔAP) (domain or fragment)
chain: MEPGSDDFLPPPECPVFEPSWAEFRDPLGYIAKIRPIAEKSGICKIRPPADWQPPFAVEVDNFRFTPRIQRLNELEAQTRVKGGGGPPEAFGFEQATREYTLQSFGEMADSFKADYFNMPVHMVPTELVEKEFWRLVNSIEEDVTVEYGADIHSKEFGSGFPVSDSKRHLTPEEEEYATSGWNLNVMPVLEQSVLCHINADISGMKVPWLYVGMVFSAFCWHIEDHWSYSINYLHWGEPKTWYGVPSLAAEHLEEVMKKLTPELFDSQPDLLHQLVTLMNPNTLMSHGVPVVRTNQCAGEFVITFPRAYHSGFNQGYNFAEAVNFCTADWLPAGRQCIEHYRRLRRYCVFSHEELICKMAACPEKLDLNLAAAVHKEMFIMVQEERRLRKALLEKGITEAEREAFELLPDDERQCIKCKTTCFLSALACYDCPDGLVCLSHINDLCKCSSSRQYLRYRYTLDELPAMLHKLKVRAESFDTWANKVRVALEVEDGRKRSLEELRALESEARERRFPNSELLQQLKNCLSEAEACVSRALGLVSGQEAG
[7]
  Kd: > 42 µM
[8]
  Kd: > 35 µM
[9]
  Kd: > 35 µM

B7: KDM5C1-839 ΔAP A388P (protein)
chain: B6 chain with A96P
[10]
  Kd: > 45 µM

B8: H3K4me2 (1–18) peptide (peptide)
peptide: ARTK(Me2)QTARKSTGGKAPRK
[11]
  Kd: > 900 µM

B9: KDM5C^1–839 K101A/R107A (domain or fragment)
chain: MEPGSDDFLPPPECPVFEPSWAEFRDPLGYIAKIRPIAEKSGICKIRPPADWQPPFAVEVDNFRFTPRIQRLNELEAQTRVKLNYLDQIAKFWEIQGSSLAIPNVEARILDLYSLSKIVVEEGGYEAICKDRRWARVAQRLNYPPGKNIGSLLRSHYERIVYPYEMYQSGANLVQCNTRPFDNEEKDKEYKPHSIPLRQSVQPSKFNSYGRRAKRLQPDPEPTEEDIEKNPELKKLQIYGAGPKMMGLGLMAKDKTLRKKDKEGPECPPTVVVKEELGGDVKVESTSPKTFLESKEELSHSPEPCTKMTMRLRRNHSNAQFIESYVCRMCSRGDEDDKLLLCDGCDDNYHIFCLLPPLPEIPKGVWRCPKCVMAECKRPPEAFGFEQATREYTLQSFGEMADSFKADYFNMPVHMVPTELVEKEFWRLVNSIEEDVTVEYGADIHSKEFGSGFPVSDSKRHLTPEEEEYATSGWNLNVMPVLEQSVLCHINADISGMKVPWLYVGMVFSAFCWHIEDHWSYSINYLHWGEPKTWYGVPSLAAEHLEEVMKKLTPELFDSQPDLLHQLVTLMNPNTLMSHGVPVVRTNQCAGEFVITFPRAYHSGFNQGYNFAEAVNFCTADWLPAGRQCIEHYRRLRRYCVFSHEELICKMAACPEKLDLNLAAAVHKEMFIMVQEERRLRKALLEKGITEAEREAFELLPDDERQCIKCKTTCFLSALACYDCPDGLVCLSHINDLCKCSSSRQYLRYRYTLDELPAMLHKLKVRAESFDTWANKVRVALEVEDGRKRSLEELRALESEARERRFPNSELLQQLKNCLSEAEACVSRALGLVSGQEAG
[8]
  Kd: > 15.1 µM
[4]
  Kd: 6.3 µM

B10: KDM5C^1–839 (domain or fragment)
chain: B9 chain with A101K, A107R
[4]
  Kd: 4.3 µM

B11: H3K4me3 (1–18) peptide (peptide)
peptide: ARTK(Me3)QTARKSTGGKAPRK
[11]
  Kd: > 1500 µM

— article PMC10247153 (2022)
